Data: patent US8246957

How the values were obtained:
[1] = target: gp120 of HIV-1 primary isolate BR004 (clade C) (HIV-1 strain BR004); assay: cell-based or functional assay
[2] = target: gp120 of HIV-1 primary isolate SF-162 (clade B) (HIV-1 strain SF-162); assay: cell-based or functional assay

For IgG clone b12 (antibody), which IC50, HIV-1 neutralization (p24, PBMC hosts) (µg Ab fragment/ml) [1] is on record?
Its IC50, HIV-1 neutralization (p24, PBMC hosts) (µg Ab fragment/ml) is 9.

And the IC90, HIV-1 neutralization (p24, PBMC hosts) (µg Ab fragment/ml) [1]?
Its IC90, HIV-1 neutralization (p24, PBMC hosts) (µg Ab fragment/ml) is 333.

And the IC50, HIV-1 neutralization (p24, PBMC hosts) (µg Ab fragment/ml) [2]?
Its IC50, HIV-1 neutralization (p24, PBMC hosts) (µg Ab fragment/ml) is 1.1.

What about the IC90, HIV-1 neutralization (p24, PBMC hosts) (µg Ab fragment/ml) [2] of the same substance?
Its IC90, HIV-1 neutralization (p24, PBMC hosts) (µg Ab fragment/ml) is 14.1.
